Target: Recombinant ligand-binding domain of McpC (amino acid residues 35-189) (Salmonella enterica serovar Typhimurium SL1344)
Test: AUC; sedimentation velocity analytical ultracentrifugation (SV-AUC), done commercially (KBI BioPharma); purified McpC ligand-binding domain; dimers present at >=4 mg/mL; monomer to dimer

Substance: Recombinant ligand-binding domain of McpC (amino acid residues 35-189) (domain or fragment)
- stoichiometry N: 2

Reference: PMC7806825
